{"source": "paper PMC11039692", "about": "“SRY-Box transcription factor 9 triggers YAP nuclear entry via direct interaction in tumors” (Signal Transduction and Targeted Therapy, 2024)", "molecules": {"B1": {"name": "SOX9: recombinant GST-SOX9 protein (Abcam, ab131911) (protein)", "chain": "MNLLDPFMKMTDEQEKGLSGAPSPTMSEDSAGSPCPSGSGSDTENTRPQENTFPKGEPDLKKESEEDKFPVCIREAVSQVLKGYDWTLVPMPVRVNGSSKNKPHVKRPMNAFMVWAQAARRKLADQYPHLHNAELSKTLGKLWRLLNESEKRPFVEEAERLRVQHKKDHPDYKYQPRRRKSVKNGQAEAEEATEQTHISPNAIFKALQADSPHSSSGMSEVHSPGEHSGQSQGPPTPPTTPKTDVQPGKADLKREGRPLPEGGRQPPIDFRDVDIGELSSDVISNIETFDVNEFDQYLPPNGHPGVPATHGQVTYTGSYGISSTAATPASAGHVWMSKQQAPPPPPQQPPQAPPAPQAPPQPQAAPPQQPAAPPQQPQAHTLTTLSSEPGQSQRTHIKTEQLSPSHYSEQQQHSPQQIAYSPFNLPHYSPSYPPITRSQYDYTDHQNSSSYYSHAAGQGTGLYSTFTYMNPAQRPMYTPIADTSGVPSIPQTHSPQHWEQPVYTQLTRP"}}, "tested_on": "FLAG-YAP", "test": "In vitro protein pull-down assay", "format": "binding", "conditions": "recombinant GST-SOX9 20 μM and FLAG-YAP 20 μM, FLAG beads, overnight at 4 °C", "description": "FLAG-YAP protein (20 μM) purified from SF9 was incubated with 20 μM GST-SOX9 protein (Abcam, ab131911), GST protein, or blank control in the presence of FLAG beads (Sigma-Aldrich, A2220) overnight at 4 °C. Following this, the beads were washed two times in binding and wash buffer (20 mM Tris [pH 8.0], 150 mM NaCl, 0.5% NP40, 0.5% TritonX-100, 1 mM DTT, and 10% glycerol), and one wash with high salt buffer (20 mM Tris [pH 8.0], 250 mM NaCl, 0.5% NP40, 0.5% TritonX-100, 1 mM DTT, and 10% glycerol). The slurry was boiled with SDS buffer and then subjected to immunoblot.", "data": [{"molecule": "B1", "values": [{"measurement": "direct interaction with YAP (pull-down)", "result": "demonstrated the direct interaction between SOX9 and YAP"}]}]}
